Measurements published in paper PMC4788435 (2016).

B1: human NEK8-GFP wild type [human] / Flag-ANKS6 [not stated] (parent complex)
chain 1: MEKYERIRVVGRGAFGIVHLCLRKADQKLVIIKQIPVEQMTKEERQAAQNECQVLKLLNHPNVIEYYENFLEDKALMIAMEYAPGGTLAEFIQKRCNSLLEEETILHFFVQILLALHHVHTHLILHRDLKTQNILLDKHRMVVKIGDFGISKILSSKSKAYTVVGTPCYISPELCEGKPYNQKSDIWALGCVLYELASLKRAFEAANLPALVLKIMSGTFAPISDRYSPELRQLVLSLLSLEPAQRPPLSHIMAQPLCIRALLNLHTDVGSVRMRRAEKSVAPSNTGSRTTSVRCRGIPRGPVRPAIPPPLSSVYAWGGGLGTPLRLPMLNTEVVQVAAGRTQKAGVTRSGRLILWEAPPLGAGGGSLLPGAVEQPQPQFISRFLEGQSGVTIKHVACGDFFTACLTDRGIIMTFGSGSNGCLGHGSLTDISQPTIVEALLGYEMVQVACGASHVLALSTERELFAWGRGDSGRLGLGTRESHSCPQQVPMPPGQEAQRVVCGIDSSMILTVPGQALACGSNRFNKLGLDHLSLGEEPVPHQQVEEALSFTLLGSAPLDQEPLLSIDLGTAHSAAVTASGDCYTFGSNQHGQLGTNTRRGSRAPCKVQGLEGIKMAMVACGDAFTVAIGAESEVYSWGKGARGRLGRRDEDAGLPRPVQLDETHPYTVTSVSCCHGNTLLAVRSVTDEPVPP
chain 2: MGEGGLPPAFQLLLRACDQGDTETARRLLEPGAAEPAERGAEPEAGAEPAGAEVAGPGAAAAGAVGAPVPVDCSDEAGNTALQFAAAGGHEPLVRFLLRRGASVNSRNHYGWSALMQAARFGHVSVAHLLLDHGADVNAQNRLGASVLTVASRGGHLGVVKLLLEAGAFVDHHHPSGEQLGLGGSRDEPLDITALMAAIQHGHEAVVRLLMEWGADPNHAARTVGWSPLMLAALTGRLGVAQQLVEKGANPDHLSVLEKTAFEVALDCKHRDLVDYLDPLTTVRPKTDEEKRRPDIFHALKMGNFQLVKEIADEDPSHVNLVNGDGATPLMLAAVTGQLALVQLLVERHADVDKQDSVHGWTALMQATYHGNKEIVKYLLNQGADVTLRAKNGYTAFDLVMLLNDPDTELVRLLASVCMQVNKDKGRPSHQPPLPHSKVRQPWSIPVLPDDKGGLKSWWNRMSNRFRKLKLMQTLPRGLSSNQPLPFSDEPEPALDSTMRAAPQDKTSRSALPDAAPVTKDNGPGSTRGEKEDTLLTTMLRNGAPLTRLPSDKLKAVIPPFLPPSSFELWSSDRSRTRHNGKADPMKTALPQRASRGHPVGGGGTDTTPVRPVKFPSLPRSPASSANSGNFNHSPHSSGGSSGVGVSRHGGELLNRSGGSIDNVLSQIAAQRKKAAGLLEQKPSHRSSPVGPAPGSSPSELPASPAGGSAPVGKKLETSKRPPSGTSTTSKSTSPTLTPSPSPKGHTAESSVSSSSSHRQSKSSGGSSSGTITDEDELTGILKKLSLEKYQPIFEEQEVDMEAFLTLTDGDLKELGIKTDGSRQQILAAISELNAGKGRERQILQETIHNFHSSFESSASNTRAPGNSPCA

Variants of: B1
Assay: co-immunoprecipitation (anti-GFP IP, western blot band quantification); HEK293T cell lysates co-expressing NEK8-GFP and Flag-ANKS6; parent: 1; read off a plot

ratio to parent | Variant
~0.42 | chain 1 T87A
~0.95 | chain 1 R602W

Second part, the variant before the results:

Variant | ratio to parent
chain 1 H425Y | ~1
chain 1 G580S | ~0.97
